# Reference: paper PMC4569848
# Tests used:
# [1] = molecular target: β-arrestin-1-R7-F2Y (UniProt P17870); assay: 19F-NMR
# [2] = molecular target: β-arrestin-1–Y63-F2Y (UniProt P17870); assay: 19F-NMR
# β-arrestin-1–Y63-F2Y, sequence (P17870 whole entry, stated change not applied): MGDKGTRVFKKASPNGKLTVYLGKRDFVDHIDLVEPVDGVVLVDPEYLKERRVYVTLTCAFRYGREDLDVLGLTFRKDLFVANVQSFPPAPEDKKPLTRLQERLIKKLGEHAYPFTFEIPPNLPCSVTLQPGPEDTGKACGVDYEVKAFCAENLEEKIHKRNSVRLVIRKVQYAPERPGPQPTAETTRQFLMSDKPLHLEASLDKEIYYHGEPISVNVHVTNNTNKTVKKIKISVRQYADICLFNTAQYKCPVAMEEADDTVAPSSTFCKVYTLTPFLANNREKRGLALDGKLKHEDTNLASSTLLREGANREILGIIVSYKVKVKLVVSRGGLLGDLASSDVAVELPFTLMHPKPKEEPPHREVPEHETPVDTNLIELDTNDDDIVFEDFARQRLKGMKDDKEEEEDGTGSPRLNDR
# β-arrestin-1-R7-F2Y, sequence (P17870 other isoform, or with tags, fused parts or gaps R7-F2Y): as the sequence (P17870 whole entry, stated change not applied) above, with R7Y counted along it
Substance,other: 19F chemical shift change [1],other: 19F chemical shift change [2]
GRK6pp (GRK6-phosphorylated β2AR C-tail) E369A,0.01 p.p.m.,0.89 p.p.m.
GRK6pp (GRK6-phosphorylated β2AR C-tail) pS355S,0.09 p.p.m.,0.02 p.p.m.
